Results: US20260226168A1 (CHIA TAI TIANQING PHARMACEUTICAL GROUP, published 2026)

B1: GC35 (bispecific antibody, human IgG1, kappa, L234A L235A)
heavy: EVQLVQSGAEVVKPGASVKMSCKASGYTFTNYVMHWVKQAPGQGLEWMGYFNPYNDGTNYNEKFKGRVTLTSDTSANTAYMELSSLRSEDTAVYYCARGGVRRYFDVWGQGTTVTVSSASTKGPSVFPLAPSSKSTSGGTAALGCLVKDYFPEPVTVSWNSGALTSGVHTFPAVLQSSGLYSLSSVVTVPSSSLGTQTYICNVNHKPSNTKVDKKVEPKSCDKTHTCPPCPAPEAAGGPSVFLFPPKPKDTLMISRTPEVTCVVVDVSHEDPEVKFNWYVDGVEVHNAKTKPREEQYNSTYRVVSVLTVLHQDWLNGKEYKCKVSNKALAAPIEKTISKAKGQPREPQVCTLPPSREEMTKNQVSLSCAVKGFYPSDIAVEWESNGQPENNYKTTPPVLDSDGSFFLVSKLTVDKSRWQQGNVFSCSVMHEALHNHYTQKSLSLSPGK
light: DIQMTQSPSSLSASVGDRVTITCRASQDIGSNLNWLQLGPGGAIKRLIYATFSLDSGVPSRFSGSRSGSDYTLTISSLQPEDFVDYYCQQYANFPPTFGGGTKVEIKRTVAAPSVFIFPPSDEQLKSGTASVVCLLNNFYPREAKVQWKVDNALQSGNSQESVTEQDSKDSTYSLSSTLTLSKADYEKHKVYACEVTHQGLSSPVTKSFNRGEC
scFv: ELVVTQEPSLTTSPGGTVTLTCRSSTGAVTTSNYANWVQQKPGQAPRGLIGGTNKRAPGTPARFSGSLLGGKAALTITGVQPEDEAEYYCALWYSNLWVFGGGTKLTVLGGGGSGGGGSGGGGSEVQLVESGGGLVQPGGSLRLSCAASGFTFNTYAMNWVRQAPGKGLEWVARIRSKYNNYATYYADSVKDRFTISRDDSKNTAYLQMNNLKTEDTAMYYCVRHGNFGNSYVSWFAYWGQGTLVTVSSGEPKSSDKTHTCPPCPAPEAAGGPSVFLFPPKPKDTLMISRTPEVTCVVVDVSHEDPEVKFNWYVDGVEVHNAKTKPREEQYNSTYRVVSVLTVLHQDWLNGKEYKCKVSNKALAAPIEKTISKAKGQPREPQVYTLPPCREEMTKNQVSLWCLVKGFYPSDIAVEWESNGQPENNYKTTPPVLDSDGSFFLYSKLTVDKSRWQQGNVFSCSVMHEALHNRYTQKSLSLSPGK
notes: also called anti-GPRC5D/anti-CD3 bispecific antibody GC35
B2: GC39 (bispecific antibody, human IgG1, kappa, L234A L235A)
heavy: EVQLVESGGGLVQPGGSRRVSCAASGFTFSSFGMHWVRQAPGKGLEWVAYISRGSSTIYYADTVKGRFTISRDNAKNSLYLQMNSLRAEDTAVYYCARSGYGSSSYYFDYWGQGTTVTVSSASTKGPSVFPLAPSSKSTSGGTAALGCLVKDYFPEPVTVSWNSGALTSGVHTFPAVLQSSGLYSLSSVVTVPSSSLGTQTYICNVNHKPSNTKVDKKVEPKSCDKTHTCPPCPAPEAAGGPSVFLFPPKPKDTLMISRTPEVTCVVVDVSHEDPEVKFNWYVDGVEVHNAKTKPREEQYNSTYRVVSVLTVLHQDWLNGKEYKCKVSNKALAAPIEKTISKAKGQPREPQVCTLPPSREEMTKNQVSLSCAVKGFYPSDIAVEWESNGQPENNYKTTPPVLDSDGSFFLVSKLTVDKSRWQQGNVFSCSVMHEALHNHYTQKSLSLSPGK
light: EIVLTQSPATLSASPGERATMSCRASSSIRSSYLHWYQQKPGQSPRLWIYSTSNLASGVPARFSGSGSGTDYTLTISSLEPEDAAVYYCQQFSGYPLTFGGGTKVEIKRTVAAPSVFIFPPSDEQLKSGTASVVCLLNNFYPREAKVQWKVDNALQSGNSQESVTEQDSKDSTYSLSSTLTLSKADYEKHKVYACEVTHQGLSSPVTKSFNRGEC
scFv: B1 scFv
notes: also called anti-GPRC5D/anti-CD3 bispecific antibody GC39
B3: Talquetamab (bispecific antibody, human IgG4 S228P, kappa, lambda, F234A L235A)
heavy 1: not shown
light 1: DIQMTQSPSSLSASVGDRVTITCKASQNVATHVGWYQQKPGKAPKRLIYSASYRYSGVPSRFSGSGSGTEFTLTISNLQPEDFATYYCQQYNRYPYTFGQGTKLEIKRTVAAPSVFIFPPSDEQLKSGTASVVCLLNNFYPREAKVQWKVDNALQSGNSQESVTEQDSKDSTYSLSSTLTLSKADYEKHKVYACEVTHQGLSSPVTKSFNRGEC
heavy 2: EVQLVESGGGLVQPGGSLRLSCAASGFTFNTYAMNWVRQAPGKGLEWVARIRSKYNNYATYYAASVKGRFTISRDDSKNSLYLQMNSLKTEDTAVYYCARHGNFGNSYVSWFAYWGQGTLVTVSSASTKGPSVFPLAPCSRSTSESTAALGCLVKDYFPEPVTVSWNSGALTSGVHTFPAVLQSSGLYSLSSVVTVPSSSLGTKTYTCNVDHKPSNTKVDKRVESKYGPPCPPCPAPEAAGGPSVFLFPPKPKDTLMISRTPEVTCVVVDVSQEDPEVQFNWYVDGVEVHNAKTKPREEQFNSTYRVVSVLTVLHQDWLNGKEYKCKVSNKGLPSSIEKTISKAKGQPREPQVYTLPPSQEEMTKNQVSLTCLVKGFYPSDIAVEWESNGQPENNYKTTPPVLDSDGSFLLYSKLTVDKSRWQEGNVFSCSVMHEALHNHYTQKSLSLSLGK
light 2: QTVVTQEPSLTVSPGGTVTLTCRSSTGAVTTSNYANWVQQKPGQAPRGLIGGTNKRAPGTPARFSGSLLGGKAALTLSGVQPEDEAEYYCALWYSNLWVFGGGTKLTVLGQPKAAPSVTLFPPSSEELQANKATLVCLISDFYPGAVTVAWKADSSPVKAGVETTTPSKQSNNKYAASSYLSLTPEQWKSHRSYSCQVTHEGSTVEKTVAPTECS
notes: Four polypeptide chains (anti-GPRC5D-HC/LC, anti-CD3-HC/LC); made in house by in vitro assembly of the two parental monoclonal antibodies with 2-MEA; also called benchmark; BM

What follows are binders tested against T1, T cell surface CD3 (human, UniProt P07766 23-207) (assay: flow cytometry on human CD3+ T cells).
T1 construct: whole, on cells
T1 sequence (P07766 23-207): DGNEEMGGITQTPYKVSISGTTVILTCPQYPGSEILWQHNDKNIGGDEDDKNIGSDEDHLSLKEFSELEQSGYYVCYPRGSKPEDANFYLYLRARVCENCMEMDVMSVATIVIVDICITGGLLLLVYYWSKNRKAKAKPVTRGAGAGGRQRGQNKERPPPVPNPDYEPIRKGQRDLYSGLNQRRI
Description: Human PBMCs (peripheral blood mononuclear cells) were sorted for CD3⁺ T cells using CD3 magnetic beads (Miltenyi, Cat. No. 130-097-043). The cryopreserved PBMCs were thawed, and washed by centrifugation twice for counting. The running buffer (MACS, Cat. No. 130-091-221) was added at a ratio of 80 μL per 10⁷ cells, and the CD3 magnetic beads were added at a ratio of 20 μL CD3 magnetic beads per 10⁷ cells. The mixture was mixed well and incubated at 4° C. for 15 min. The running buffer was added at a ratio of 1-2 mL per 10⁷ cells for washing the cells. The mixture was centrifuged, the supernatant was discarded, and 500 μL of running buffer was added to resuspend the cell pellet. The LS sorting column (Miltenyi, Cat. No. 130-042-401) was placed on the MidiMACS Starting Kit (LS) magnetic rack (Miltenyi, Cat. No. 130-091-051). After rinsing, the cell suspension was added and washed thrice. The LS sorting column was removed from the magnetic rack and placed on a clean centrifuge tube and 5 mL buffer was added to collect the sorted CD3⁺ T cells.
After counting, the CD3⁺ T cells were adjusted to a cell density of 1×10⁶-2×10⁶ cells/mL using running buffer, and seeded in a 96-well U-bottom cell culture plate (Costar, Cat. No. 3799) at 50 μL per well. Different concentrations of the anti-GPRC5D/anti-CD3 bispecific antibodies were prepared using running buffer. The highest concentration of the antibodies was 200 nM, and the antibodies were serially diluted 5-fold to obtain a total of 10 concentration gradients. The antibodies at different concentrations were added to the 96-well cell culture plate described above at 50 μL per well, mixed well and incubated at 4° C. for 1 h. The cells were washed with pre-cooled running buffer (MACS, Cat. No. 130-091-221), and then the supernatant was discarded. Pre-cooled PE-conjugated goat anti-human IgG Fcγ antibody (Jackson Immuno Research, Cat. No. 109-116-170) was added, and the cells were resuspended at 100 μL/well. The mixture was mixed well and incubated at 4° C. for 30 min. […]
In the case of B1, the “Top(MFI)” value is reported as 54700. With B2 the “Top(MFI)” value was 38000. In the case of B3, the “Top(MFI)” value is reported as 155000.
